Patent US20240247080A1, “GLP1/GIP/NPY2 RECEPTOR TRIPLE AGONISTS” (Boehringer Ingelheim International GmbH, priority 2022, published 2024)
Starred links: 1 amine or outer side, 2 acyl side, 3 side chain; linkers in the order of their positions; H or OH if unused. Non-standard residues stand in square brackets, D forms with d. Groups on a side chain read outwards from the residue. No end group written: not given here. *: point of attachment. C18 diacid = O=C(O)CCCCCCCCCCCCCCCCC(=O)*; γGlu = O=C(O)[C@H](CCC(=O)[*:2])N[*:1]; εLys = N[C@@H](CCCCN[*:1])C(=O)[*:2]; Aib = CC(C)(N)C(=O)O; Ahx = NCCCCCC(=O)O

T1: human GIP receptor (human, UniProt P48546 22-466)
T1 sequence (looked up): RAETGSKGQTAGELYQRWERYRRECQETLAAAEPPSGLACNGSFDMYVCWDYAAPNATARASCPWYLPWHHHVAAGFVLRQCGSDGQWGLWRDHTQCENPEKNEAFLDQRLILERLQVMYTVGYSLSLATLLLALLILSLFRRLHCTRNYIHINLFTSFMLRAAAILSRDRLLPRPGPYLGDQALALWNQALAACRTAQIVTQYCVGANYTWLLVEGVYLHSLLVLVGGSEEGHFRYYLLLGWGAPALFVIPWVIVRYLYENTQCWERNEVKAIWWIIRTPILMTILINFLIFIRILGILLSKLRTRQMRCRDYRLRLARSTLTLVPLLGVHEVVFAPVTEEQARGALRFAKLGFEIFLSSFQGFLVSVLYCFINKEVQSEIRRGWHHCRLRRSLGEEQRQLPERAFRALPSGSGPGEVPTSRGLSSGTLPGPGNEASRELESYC

T2: human neuropeptide Y2 receptor (human, UniProt P49146 1-381)
T2 sequence (looked up): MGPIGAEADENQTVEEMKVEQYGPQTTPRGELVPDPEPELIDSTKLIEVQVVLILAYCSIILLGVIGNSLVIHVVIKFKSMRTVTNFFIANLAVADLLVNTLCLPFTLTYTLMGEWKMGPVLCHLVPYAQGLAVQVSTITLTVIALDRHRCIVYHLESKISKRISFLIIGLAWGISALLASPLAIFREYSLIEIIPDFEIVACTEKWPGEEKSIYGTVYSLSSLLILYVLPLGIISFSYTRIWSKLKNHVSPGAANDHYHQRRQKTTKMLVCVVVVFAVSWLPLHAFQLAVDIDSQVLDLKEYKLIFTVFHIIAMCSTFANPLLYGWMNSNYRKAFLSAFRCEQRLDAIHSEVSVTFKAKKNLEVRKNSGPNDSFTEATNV


Legend:
Experiment in all cases: cell-based or functional assay
human GIP receptor = molecular target: T1, human GIP receptor
human GLP-1 receptor = human GLP-1 receptor (human, UniProt P43220 24-463)
[1] = molecular target: T2, human neuropeptide Y2 receptor

Row | Binder | EC50 CreLuc hGIPR 0.5% hP (human GIP receptor) | EC50 CreLuc hGIPR 100% hP (human GIP receptor) | EC50 CreLuc hGLP1R 0.5% hP (human GLP-1 receptor) | EC50 CreLuc hGLP1R 100% hP (human GLP-1 receptor) | EC50 CreLuc hNPY2R 0.5% hP [1] | EC50 CreLuc hNPY2R 100% hP [1]
1 | YXEGTFTSDYSIXLEQQAQXAFVEWLIKGGPSSGASLRHYYNWLTRQRY (Aib at 2, 13, 20; K28 side chain: C20DA-gGlu-gGlu-gGlu-gGlu-Glu-gGlu-eLys; C-terminal NH2) [Compound 124] | 0.26 nM | 0.89 nM | 0.11 nM | 1.95 nM | 16.2 nM | 39.9 nM
2 | YXEGTFTSDYSIXLEKQAQXAFVEWLIKGGPSSGESLRHYYNWLTRQRY (Aib at 2, 13, 20; K28 side chain: C20DA-gGlu-gGlu-gGlu-gGlu-gGlu-gGlu-eLys; C-terminal NH2) [Compound 127] | 0.05 nM | 0.84 nM | 0.04 nM | 1.6 nM | 13.2 nM | 66.3 nM
3 | YXEGTFTSDYSIXLERQAQXAFVEWLIKGGPSSGASLRHYYNWLTRQRY (Aib at 2, 13, 20; K28 side chain: C20DA-gGlu-gGlu-gGlu-gGlu-gGlu-gGlu-eLys; C-terminal NH2) [Compound 131] | 0.35 nM | 2.94 nM | 0.11 nM | 2.84 nM | 18.2 nM | 71.5 nM
4 | YXEGTFTSDYSIXLEKQAQXAFIEWLIKGGPSSGASLRHYYNWLTRQRY (Aib at 2, 13, 20; K28 side chain: C20DA-gGlu-gGlu-gGlu-Glu-gGlu-gGlu-eLys; C-terminal NH2) [Compound 130] | 0.11 nM | 0.98 nM | 0.13 nM | 1.18 nM | 18 nM | 54.8 nM
5 | YXEGTFTSDYSIXLEKQAQXEFVQWLIKGGPSEGASLRHYYNWLTRQRY (Aib at 2, 13, 20; K28 side chain: C18DA-gGlu-gGlu-gGlu-gGlu-gGlu; C-terminal NH2) [Compound 141] | 0.4 nM | 1.32 nM | 0.25 nM | 7.93 nM | 11.8 nM | 35.2 nM
6 | YXEGTFTSDYSIXLEKQAQXAFVEWLIKGGPSSGASLRHYYNWXTRQRY (Aib at 2, 13, 20; Tle at 44; K28 side chain: C20DA-gGlu-gGlu-gGlu-gGlu-gGlu-gGlu-eLys; C-terminal NH2) [Compound 137] | 0.28 nM | 1.5 nM | 0.12 nM | 2.22 nM | 60.2 nM | 93 nM
7 | YXEGTFTSDYSIXLEKQAQXAFVEYLIKGGPSSGASLRHYYNWLTRQRY (Aib at 2, 13, 20; K28 side chain: C20DA-gGlu-gGlu-gGlu-gGlu-gGlu-gGlu-eLys; C-terminal NH2) [Compound 135] | 0.11 nM | 1.07 nM | 0.24 nM | 2.3 nM | 8.4 nM | 21.5 nM
8 | YXEGTFTSDYSIXLEKQAQXAFVQWLIKGGPSEGASLRHYYNWLTRQRY (Aib at 2, 13, 20; NMeR at 48; K28 side chain: C20DA-gGlu-gGlu-gGlu-gGlu-gGlu-gGlu-eLys; C-terminal NH2) [Compound 125] | 0.28 nM | 1.72 nM | 0.23 nM | 2.85 nM | 30.9 nM | 99.3 nM
9 | YXEGTFTSDYSIXLEKQAQXAFVEWLIKGGPSSGASIRHYYNWLTRQRY (Aib at 2, 13, 20; K28 side chain: C20DA-gGlu-gGlu-gGlu-gGlu-gGlu-gGlu-eLys; C-terminal NH2) [Compound 132] | 0.22 nM | 2.07 nM | 0.14 nM | 3.76 nM | 11.3 nM | 45.4 nM
10 | YXEGTFTSDYSIXLEKQAQXAFVEWLIKGGPSEGQSIRHYYNWLTRQRY (Aib at 2, 13, 20; K28 side chain: C20DA-gGlu-gGlu-gGlu-gGlu-gGlu-gGlu-eLys; C-terminal NH2) [Compound 134] | 0.09 nM | 0.83 nM | 0.1 nM | 3.94 nM | 10.1 nM | 40 nM
11 | YXEGTFTSDYSIXLEKAAQXAFVEWLIKGGPSSGASLRHYYNWLTRQRY (Aib at 2, 13, 20; K28 side chain: C20DA-gGlu-gGlu-gGlu-gGlu-gGlu-gGlu-eLys; C-terminal NH2) [Compound 136] | 0.31 nM | 2.03 nM | 0.32 nM | 4.19 nM | 15.1 nM | 64.7 nM
12 | YXEGTFTSDYSIXLEKQAQXAFVQWLIKGGPSEPASLRHYYNWLTRQRY (Aib at 2, 13, 20; K28 side chain: C18DA-gGlu-gGlu-gGlu-gGlu-gGlu-OEG-OEG; C-terminal NH2) [Compound 142] | 0.28 nM | 1.15 nM | 0.12 nM | 3.34 nM | 12.9 nM | 28.2 nM
13 | YXEGTFTSDYSIXLEKQAQXAFVEWLIKGGPSSPASLRHYYNWLTRQRY (Aib at 2, 13, 20; K28 side chain: C18DA-gGlu-gGlu-gGlu-gGlu-gGlu-OEG-OEG; C-terminal NH2) [Compound 140] | 0.22 nM | 1.2 nM | 0.12 nM | 3.11 nM | 12.4 nM | 45.9 nM
14 | YXEGTFTSDYSIXLEKQAQXAFVEWLIKGGPSSGASLRHYXNWLTRQRY (Aib at 2, 13, 20; Tle at 41; K28 side chain: C20DA-gGlu-gGlu-gGlu-gGlu-gGlu-gGlu-eLys; C-terminal NH2) [Compound 133] | 0.48 nM | 2.28 nM | 0.16 nM | 3.01 nM | 14.1 nM | 41.4 nM
15 | YXEGTFTSDYSIXLEKQAQXAFVEWLIKGGPSSGASLXHYYNWLTRQRY (Aib at 2, 13, 20, 38; K28 side chain: C20DA-gGlu-gGlu-gGlu-gGlu-gGlu-gGlu-eLys; C-terminal NH2) [Compound 129] | 0.06 nM | 0.5 nM | 0.04 nM | 0.85 nM | 30.9 nM | 87.6 nM
16 | YXEGTFTSDYSIXLDKQAQXAFVEWLIKGGPSSGASLRHYYNWLTRQRY (Aib at 2, 13, 20; K28 side chain: C20DA-gGlu-gGlu-gGlu-gGlu-gGlu-gGlu-eLys; C-terminal NH2) [Compound 128] | 0.11 nM | 0.9 nM | 0.4 nM | 3.7 nM | 24.8 nM | 51.9 nM
17 | Y[Aib]EGTFTSDYSI[Aib]LEKQAQ[Aib]AFVQWLIK([Ahx-γGlu-γGlu-γGlu-γGlu-γGlu-γGlu-C18 diacid])GGPSSGASLRHYYNWLTRQRY-NH2 [Compound 139] | 0.22 nM | 1.04 nM | 0.07 nM | 1.62 nM | 18.3 nM | 43.2 nM
18 | Y[Aib]EGTFTSDYSI[Aib]LEKQAQ[Aib]AFVEWLIKGGPSSYASLRHYYNWLTRQRY-NH2 (not fully specified (residue 28)) [Compound 126] | 0.1 nM | 1.27 nM | 0.18 nM | 3.36 nM | 15.1 nM | 41.8 nM
19 | Y[Aib]EGTFTSDYSI[Aib]LEKQAE[Aib]AFVQWLIK([εLys-γGlu-γGlu-γGlu-γGlu-γGlu-C18 diacid])GGPSEGASLRHYYNWLTRQRY-NH2 [Compound 138] | 0.13 nM | 0.81 nM | 0.19 nM | 5.09 nM | 18.3 nM | 28.4 nM
